Molecular target: immobilized peptides having F NTAA residue (F-P2 peptides of the 484-peptide P1-P2 array)
Assay: cell-based or functional assay

B1: TdT-F4R10 conjugate (designed binder)
chain: GSSHHHHHHGGSSDSPVDLKPKPKVKPKLERPKLYKVMLLNDNSTPGEFVTVVLKAVFRMSEDTGRRVMMTAHRFGSAVVVVSERDIAETKAKEATDLGKEAGFPLMFTTEPEEGAPSGAPSGAPSGAPSGAPSGAPSSPSPVPGSQNVPAPAVKKISQYACQRRTTLNNYNQLFTDALDILAENDELRENEGSCLAFMRASSVLKSLPFPITSMKDTEGIPCLGDKVKSIIEGIIEDGESSEAKAVLNDERYKSFKLFTSVFGVGLKTAEKWFRMGFRTLSKIQSDKSLRFTQMQKAGFLYYEDLVSCVNRPEAEAVSMLVKEAVVTFLPDALVTMTGGFRRGKMTGHDVDFLITSPEATEDEEQQLLHKVTDFWKQQGLLLYCDILESTFEKFKQPSRKVDALDHFQKCFLILKLDHGRVHSEKSGQQEGKGWKAIRVDLVMCPYDRRAFALLGWTGSRQFERDLRRYATHERKMMLDNHALYDRTKRVFLEAESEEEIFAHLGLDYIEPWERNA
- nucleotides inserted into the recording tag per encoding cycle (nt per encoding cycle): 5 to 8
